The record followed here is patent US20190023748A1 (NAVIGEN, published 2019).

Assay in all cases: cell-based or functional assay
Assay [1] concerns the target HIV-1 gp41 of strain JRFL (HIV-1 strain JRFL).
The target in assay [2] is T1, HIV-1 gp41 of strain HXB2 (HIV-1 strain HXB2, UniProt P04578 512-856).
The target of assay [3] is HIV-1 gp41 of strain JRFL (HIV-1 strain JRFL). This is another data set of the same source.
In assay [4] the target is T1, HIV-1 gp41 of strain HXB2. This is another data set of the same source.

Bridge positions count the residues as written; N and C are the ends. Square brackets hold non-standard residues; d marks the D form. Primed or numbered codes have the meaning given here. Side chains are listed from the residue outwards. PEG4″ = PEG chain having 4 ethylene glycol repeat units; 4‑arm scaffold = not defined here

B1: 40 kD PEG-PEG24-PIE12 trimer (peptide)
peptide: Ac-[dH][dP][dC][dD][dY][dP][dE][dW][dQ][dW][dL][dC][dE][dL]GK-NH2
modifications: disulfide 3-12 (inferred); not fully specified (residue 16); also: trimer: three PIE12 monomers on 4-arm scaffold, fourth arm PEG24 carrying 40 kDa Y-branched PEG
B1: in assay [1], the “fold reduction of potency against unconjugated PIE12-trimer (JRFL)” value worked out at 34 fold. Also, in assay [2], the “fold reduction of potency against unconjugated PIE12-trimer (HXB2)” value was 13 fold. Besides, in assay [3], the “Antiviral potency, IC50, JRFL pseudovirion entry assay” value was found to be 71 nM. Moreover, the “Antiviral potency, IC50, HXB2 pseudovirion entry assay” value in assay [4] amounted to 9.5 nM.

B2: Palmitate-conjugated PIE12-trimer (peptide)
peptide: Ac-[dH][dP][dC][dD][dY][dP][dE][dW][dQ][dW][dL][dC][dE][dL]G[dK]([PEG4″-4‑arm scaffold])-NH2
modifications: disulfide 3-12 (inferred); reading uncertain; also: trimer: three PIE12 monomers on 4-arm scaffold, fourth arm PEG24 with D-cysteine bridge carrying palmitate
Take B2: in assay [1], the “fold increase in potency against unconjugated PIE12-trimer (JRFL)” value was in the range of 3 to 4 fold. Moreover, in assay [2], the “fold increase in potency against unconjugated PIE12-trimer (HXB2)” value lay within 3 to 4 fold. Moreover, the “Antiviral potency, IC50, JRFL pseudovirion entry assay” value in assay [3] is 0.54 nM. Further, the “Antiviral potency, IC50, HXB2 pseudovirion entry assay” value in assay [4] was 0.225 nM.

B3: CPT24-5 kD (peptide)
peptide: Ac-[dH][dP][dC][dD][dY][dP][dE][dW][dQ][dW][dL][dC][dE][dL]G[dK]([PEG4″-4‑arm scaffold])-NH2
modifications: disulfide 3-12 (inferred); reading uncertain; also: PIE12 trimer on 4-arm scaffold, fourth arm 5 kDa linear polydisperse PEG with thiocholesterol
Regarding B3, the “Antiviral potency, IC50, JRFL pseudovirion entry assay” value in assay [3] was determined as 0.026 nM.
